Data: publication PMC4441819 (Cell, 2015)

Molecular target: T1, HA A/Solomon Islands/03/2006 globular head (Influenza A virus A/Solomon …)
T1 chain: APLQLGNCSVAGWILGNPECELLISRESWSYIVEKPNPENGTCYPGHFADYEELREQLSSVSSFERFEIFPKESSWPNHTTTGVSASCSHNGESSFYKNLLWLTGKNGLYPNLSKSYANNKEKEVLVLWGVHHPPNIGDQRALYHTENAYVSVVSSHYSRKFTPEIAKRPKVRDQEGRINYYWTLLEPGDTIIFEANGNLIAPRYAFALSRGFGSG
Assay: BLI

B1: CH67 Fab, critical dipeptide VD changed to ID (Fab, V domains shown)
VH: QVQLVQSGAEVRKPGASVKVSCKASGYTFTDNYIHWVRQAPGQGLEWMGWIHPNSGATKYAQKFEGWVTMTRDTSISTVYMELSRSRSDDTAVYYCARAGLEPRSIDYYFYGLDVWGQGTAVTVSS
VL: QSALTQPPSVSVAPGQTATITCGGNNIGRKRVDWFQQKPGQAPVLVVYEDSDRPSGIPERFSDSNSGTTATLTISRVEAGDEADYYCQVWDSDSDHVVFGGGTKLTVL
Question: How did the Kd turn out when B1 was run?
Answer: 1790 ± 120 nM

Question: And the kon?
Answer: 42400 M⁻¹ s⁻¹
